Earlier results in publication PMC7427315.

Biological target: MAG ECD (Mus musculus) (UniProt P20917)

Kd: 380 µM
Substance: MAG ECD (from UniProt P20917)
